Data on one molecule can be found in PMC4038462, “PAX6 Regulates Melanogenesis in the Retinal Pigmented Epithelium through Feed-Forward Regulatory Interactions with MITF” (PLoS Genetics, 2014).

This assay addresses T1, 3xFLAG-MITF (UniProt Q08874 1-526).
T1 sequence (looked up): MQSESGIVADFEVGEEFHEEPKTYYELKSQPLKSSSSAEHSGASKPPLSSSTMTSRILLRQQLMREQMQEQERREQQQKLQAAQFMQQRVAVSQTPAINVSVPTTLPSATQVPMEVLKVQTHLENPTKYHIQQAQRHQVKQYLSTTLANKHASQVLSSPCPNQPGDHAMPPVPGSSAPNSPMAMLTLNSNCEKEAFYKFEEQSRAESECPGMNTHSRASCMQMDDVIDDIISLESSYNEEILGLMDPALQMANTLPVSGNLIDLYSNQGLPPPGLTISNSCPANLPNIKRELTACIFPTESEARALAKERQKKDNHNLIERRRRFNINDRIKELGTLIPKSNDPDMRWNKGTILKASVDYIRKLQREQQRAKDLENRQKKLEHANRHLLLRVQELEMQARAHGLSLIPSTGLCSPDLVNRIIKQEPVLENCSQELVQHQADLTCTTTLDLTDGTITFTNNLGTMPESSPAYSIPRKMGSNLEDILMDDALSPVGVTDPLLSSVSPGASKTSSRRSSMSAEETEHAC
The assay is described as follows: cell-based or functional assay.

B1: 3xFLAG-PAX6 (natural protein)
chain: not shown
B1: the “luciferase reporter under the hTyr promoter in HeLa cells, fold change with MITF + PAX6 (MITF alone 12.6 fold)” value is 71.3 fold change; the “luciferase reporter under the mTyrp1 promoter in HeLa cells, fold change with MITF + PAX6 (MITF alone 5.6 fold; PAX6 alone no activation)” value turned out to be 51.9 fold change; the “luciferase reporter with four consecutive M-box elements in HeLa cells, fold activity with PAX6 and MITF together (MITF alone 6.6 fold; PAX6 alone none)” value worked out at 11.9 fold.
